Here are results for eight molecules from patent EP1789452B1 (Janssen Pharmaceutica NV, dated 2006).

Ends that are not written are not given here.

Experiment [1] addresses T1, human LGR8 (human, UniProt Q8WXD0 1-754). The experiment is described as follows: cell-based or functional assay.
In experiment [2] the target is T2, human LGR7 (human, UniProt Q9HBX9 1-757).
T2 construct: whole, on cells
T2 sequence (looked up): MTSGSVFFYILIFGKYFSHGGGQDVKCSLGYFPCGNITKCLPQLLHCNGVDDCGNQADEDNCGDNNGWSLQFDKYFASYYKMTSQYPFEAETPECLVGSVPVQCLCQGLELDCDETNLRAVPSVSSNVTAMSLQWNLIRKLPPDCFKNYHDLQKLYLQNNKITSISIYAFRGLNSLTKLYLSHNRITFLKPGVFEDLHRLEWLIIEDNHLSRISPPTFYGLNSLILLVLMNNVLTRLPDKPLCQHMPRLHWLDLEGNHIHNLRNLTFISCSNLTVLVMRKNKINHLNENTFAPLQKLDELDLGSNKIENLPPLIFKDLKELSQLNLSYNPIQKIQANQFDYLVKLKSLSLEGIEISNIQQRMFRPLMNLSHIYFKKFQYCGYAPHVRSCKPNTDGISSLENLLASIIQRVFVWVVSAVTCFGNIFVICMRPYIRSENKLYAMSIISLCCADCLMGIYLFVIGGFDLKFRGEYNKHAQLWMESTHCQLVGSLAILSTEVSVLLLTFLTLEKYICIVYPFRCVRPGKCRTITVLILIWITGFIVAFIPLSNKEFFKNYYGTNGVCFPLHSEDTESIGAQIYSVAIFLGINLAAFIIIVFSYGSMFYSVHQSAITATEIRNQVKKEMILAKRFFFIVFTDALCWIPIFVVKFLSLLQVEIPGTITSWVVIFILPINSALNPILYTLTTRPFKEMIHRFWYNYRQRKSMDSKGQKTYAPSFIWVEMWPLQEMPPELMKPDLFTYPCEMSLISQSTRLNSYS
The experiment is described as follows: competition with 100 pM [125I]-relaxin-3, live COS-7 cells with human LGR7.

The target of experiment [3] is T1, human LGR8. The experiment is described as follows: cell-based or functional assay. This is another data set of the same source.
For experiment [4], the target named is T2, human LGR7. The experiment is described as follows: cell-based or functional assay.
In experiment [5] the target is T3, human GPCR142 (human, UniProt Q8TDU9 1-374). As to the kind of experiment: cell-based or functional assay.
T3 sequence (Q8TDU9 whole entry L329S, form in doubt): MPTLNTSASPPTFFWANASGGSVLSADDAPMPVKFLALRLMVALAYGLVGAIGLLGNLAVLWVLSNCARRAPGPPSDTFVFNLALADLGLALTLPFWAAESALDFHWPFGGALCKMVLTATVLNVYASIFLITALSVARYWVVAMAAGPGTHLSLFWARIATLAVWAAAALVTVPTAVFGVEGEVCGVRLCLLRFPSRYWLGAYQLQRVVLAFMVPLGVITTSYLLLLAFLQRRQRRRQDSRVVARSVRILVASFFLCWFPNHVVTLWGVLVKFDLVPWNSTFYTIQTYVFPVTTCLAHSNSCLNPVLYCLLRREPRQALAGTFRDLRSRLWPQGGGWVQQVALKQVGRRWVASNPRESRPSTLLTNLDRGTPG
Experiment [6] has as its target T3, human GPCR142. The experiment is described as follows: competition with 100 pM [125I]-relaxin-3, COS-7 membranes with human GPCR142.
The target of experiment [7] is T1, human LGR8. As to the kind of experiment: radioligand competition with [125I]-INSL3, human LGR8; lower end tied to R3/I3 by Table 1. In general terms: Displacement assays read how much labelled ligand stays bound in the presence of the test substance.
Experiment [8] concerns the target T1, human LGR8. The experiment is described as follows: competition with 100 pM [125I]-INSL3, live COS-7 cells with human LGR8.
In experiment [9] the target is T4, rat GPCR135 (rat, UniProt Q5Y987 29-469).
T4 construct: whole, on cells; also called rat recombinant GPCR135
As to the kind of experiment: quantitative receptor autoradiography, displacement of 7 pM [125I]R3/I5 from rat brain sections; olfactory bulb; unit from paragraph 235.

Experiment [10] addresses T2, human LGR7. As to the kind of experiment: cell-based or functional assay. This is another data set of the same source.
For experiment [11], the target named is T4, rat GPCR135. The experiment is described as follows: quantitative receptor autoradiography, displacement of 7 pM [125I]R3/I5 from rat brain sections; superior colliculus; unit from paragraph 235.
For experiment [12], the target named is T4, rat GPCR135. The experiment is described as follows: quantitative receptor autoradiography, displacement of 7 pM [125I]R3/I5 from rat brain sections; cortex; unit from paragraph 235.
The target of experiment [13] is T5, human GPCR135 (human, UniProt Q9NSD7 1-469).
T5 construct: also called SALPR
T5 sequence: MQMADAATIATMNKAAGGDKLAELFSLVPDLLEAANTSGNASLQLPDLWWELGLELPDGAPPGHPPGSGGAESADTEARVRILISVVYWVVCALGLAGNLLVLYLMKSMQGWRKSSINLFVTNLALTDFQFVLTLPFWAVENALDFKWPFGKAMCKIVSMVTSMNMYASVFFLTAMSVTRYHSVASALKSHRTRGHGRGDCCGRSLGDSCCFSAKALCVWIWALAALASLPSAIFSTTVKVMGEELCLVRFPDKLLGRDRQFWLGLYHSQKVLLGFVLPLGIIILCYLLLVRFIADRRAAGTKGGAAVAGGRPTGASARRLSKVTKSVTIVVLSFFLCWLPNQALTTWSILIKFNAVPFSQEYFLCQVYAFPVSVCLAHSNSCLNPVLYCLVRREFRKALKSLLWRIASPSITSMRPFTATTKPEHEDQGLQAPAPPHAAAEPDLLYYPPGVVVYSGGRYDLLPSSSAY
The experiment is described as follows: competition with 100 pM [125I]-relaxin-3, COS-7 membranes with human GPCR135.

For experiment [14], the target named is T5, human GPCR135. As to the kind of experiment: cell-based or functional assay.
For another experiment, the target named is T6, rat LGR7 (rat, UniProt Q6R6I6 1-758).
T6 construct: whole, on cells; Membranes of COS-7 cells transiently expressing rat LGR7; also called rat recombinant LGR7
T6 sequence (looked up): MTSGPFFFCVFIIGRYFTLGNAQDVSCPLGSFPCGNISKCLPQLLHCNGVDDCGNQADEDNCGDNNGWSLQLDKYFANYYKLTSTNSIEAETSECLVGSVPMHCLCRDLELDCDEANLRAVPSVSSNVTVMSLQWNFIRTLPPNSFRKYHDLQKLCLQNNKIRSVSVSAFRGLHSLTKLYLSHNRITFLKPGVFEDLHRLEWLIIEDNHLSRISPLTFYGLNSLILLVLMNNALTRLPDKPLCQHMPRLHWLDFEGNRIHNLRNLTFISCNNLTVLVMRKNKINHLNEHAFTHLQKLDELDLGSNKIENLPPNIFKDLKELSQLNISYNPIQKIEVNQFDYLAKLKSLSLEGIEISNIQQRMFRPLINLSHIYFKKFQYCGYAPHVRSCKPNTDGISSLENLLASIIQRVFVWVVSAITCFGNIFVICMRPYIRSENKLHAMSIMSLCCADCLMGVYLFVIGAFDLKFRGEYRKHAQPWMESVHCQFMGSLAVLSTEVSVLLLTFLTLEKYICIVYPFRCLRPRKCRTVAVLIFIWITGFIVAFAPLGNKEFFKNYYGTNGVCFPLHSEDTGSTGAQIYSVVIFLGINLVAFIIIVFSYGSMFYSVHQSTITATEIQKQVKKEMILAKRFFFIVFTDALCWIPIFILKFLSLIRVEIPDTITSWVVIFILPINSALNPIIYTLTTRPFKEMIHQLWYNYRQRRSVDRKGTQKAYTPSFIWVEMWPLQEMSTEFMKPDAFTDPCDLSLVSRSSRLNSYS
As to the kind of experiment: competition with 100 pM [125I] human relaxin-2, COS-7 membranes with rat LGR7.

Experiment [15] addresses T1, human LGR8. As to the kind of experiment: competition with 100 pM [125I]-INSL3, live COS-7 cells expressing human LGR8; ND denotes no activity was detected.
Experiment [16] concerns the target T2, human LGR7. The experiment is described as follows: radioligand competition, human LGR7 (Table 1 prints 724 nM).
Experiment [17] concerns the target T4, rat GPCR135. The experiment is described as follows: competition with 100 pM [125I] human R3, COS-7 membranes with rat GPCR135.
For experiment [18], the target named is T4, rat GPCR135. As to the kind of experiment: ratio of IC50 values from radioligand competition on rat GPCR135 and rat LGR7.
Experiment [19] has as its target T5, human GPCR135. As to the kind of experiment: discussion of the radioligand binding results of Examples 3-5.
Experiment [20] has as its target T2, human LGR7. The description is as above.
Experiment [21] addresses T5, human GPCR135. The experiment is described as follows: cell-based or functional assay. The source holds these as a separate data set.
Experiment [22] concerns the target T3, human GPCR142. The experiment is described as follows: cell-based or functional assay. The source holds these as a separate data set.
Experiment [23] has as its target T2, human LGR7. The experiment is described as follows: radioligand competition, human LGR7 (Table 1 prints 12.9).

T1 sequence (Q8WXD0 whole entry): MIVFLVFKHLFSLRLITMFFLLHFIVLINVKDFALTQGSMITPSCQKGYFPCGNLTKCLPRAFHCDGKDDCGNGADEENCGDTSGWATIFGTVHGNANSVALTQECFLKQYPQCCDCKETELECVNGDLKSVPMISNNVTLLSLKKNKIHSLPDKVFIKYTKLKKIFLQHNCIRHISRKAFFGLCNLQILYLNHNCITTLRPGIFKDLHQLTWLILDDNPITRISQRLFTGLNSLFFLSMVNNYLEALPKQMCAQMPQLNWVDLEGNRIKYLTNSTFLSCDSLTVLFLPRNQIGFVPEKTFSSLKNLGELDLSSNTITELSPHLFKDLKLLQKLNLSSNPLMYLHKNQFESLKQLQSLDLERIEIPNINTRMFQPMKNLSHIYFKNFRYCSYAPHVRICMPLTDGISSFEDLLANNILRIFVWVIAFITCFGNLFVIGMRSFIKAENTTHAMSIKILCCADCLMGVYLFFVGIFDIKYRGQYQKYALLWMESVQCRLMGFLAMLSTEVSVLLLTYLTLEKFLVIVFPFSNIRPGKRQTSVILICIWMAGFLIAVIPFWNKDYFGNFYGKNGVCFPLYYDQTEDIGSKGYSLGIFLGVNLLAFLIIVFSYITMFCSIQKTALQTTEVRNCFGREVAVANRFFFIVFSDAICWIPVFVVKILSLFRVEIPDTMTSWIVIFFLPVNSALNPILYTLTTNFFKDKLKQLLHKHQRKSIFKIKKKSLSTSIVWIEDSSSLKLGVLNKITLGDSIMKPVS

B1: human INSL3 (ligand)
chain 1: PTPEMREKLCGHHFVRALVRVCGGPRWSTEA
chain 2: AAATNPARYCCLSGCTQQDLLTLCPY
modifications: ends and bridges not checked; also: also used as 125I-labelled tracer
Take B1: the “induction of β-galactosidase activity in SK-N-MC/β-gal cells, EC50” value with human LGR8 [1] is 0.16 nM.

B2: Relaxin-3/INSL3 (R3/I3) chimeric polypeptide (ligand, human)
chain 1: RAAPYGVRLCGREFIRAVIFTCGGSRW
chain 2: NPARYCCLSGCTQQDLLTLC
modifications: disulfide (positions not given here)
notes: domain: A-chain; Two chains joined by disulfide bonds; FLAG tag removed
What is called IC50 is the concentration needed to halve the response being measured. Read a high IC50 as a need for much substance. Regarding B2, the 50% inhibitory concentration (IC50) with human LGR7 [2] was determined as 2.3 nM; with human GPCR142 [6], 3.5 nM; with human LGR8 [7], 500 nM; with human LGR8 [8], 475 nM. Further, the “EC50, ligand stimulated β-galactosidase expression” value with human LGR8 [3] came out at 258 nM; with human LGR7 [4], 2.5 nM. In the experiment with human GPCR142 [5], the “EC50, inhibition of forskolin stimulated β-galactosidase expression” value (shortened to “EC50, inhibition”) turned out to be 2.9 nM.

B3: human relaxin-3 (ligand)
chain 1: RAAPYGVRLCGREFIRAVIFTCGGSRW
chain 2: DVLAGLSSSCCKWGCSKSEISSLC
modifications: ends and bridges not checked; also: also used as 125I-labelled tracer
notes: domain: A-chain; Mature two-chain hormone; also called R3; INSL7
For the molecule B3, the IC50 with rat GPCR135 [9] was 0.3 nM; in the experiment with rat GPCR135 [11] it was 0.3 nM; with rat GPCR135 [12] it was 0.4 nM. Further, in the experiment with human LGR7 [10], the “stimulation of β-galactosidase activity in SK-N-MC/β-gal cells, EC50” value worked out at 1.4 nM.

B4: Relaxin-3/Relaxin-2 (R3/R2) chimeric polypeptide (ligand, human)
chain 1: RAAPYGVRLCGREFIRAVIFTCGGSRW
chain 2: QLYSALANKCCHVGCTKRSLARFC
modifications: disulfide (positions not given here); also: two chains joined by disulfide bonds, pairing not given here
notes: as for B2
Turning to B4, the IC50 in the experiment with human GPCR135 [13] was 1.2 nM; in the experiment with human LGR7 [2], 1.5 nM; with human GPCR142 [6], 1.8 nM; with human LGR8 [8], 615 nM. Besides, the results for the “EC50, ligand stimulated β-galactosidase expression” value with human LGR8 [3] and with human LGR7 [4] were 575 nM and 1.1 nM, respectively. Further, the “EC50, inhibition” value with human GPCR135 [14] was found to be 1.1 nM; with human GPCR142 [5], 1.4 nM.

B5: Relaxin-3/INSL5 (R3/I5) chimeric polypeptide (ligand)
chain 1: RAAPYGVRLCGREFIRAVIFTCGGSRW
chain 2: DLQTLCCTDGCSMTDLSALC
modifications: disulfide (positions not given here); also: two chains joined by disulfide bonds, places not given here
notes: Two chains joined by disulfide bonds; FLAG tag removed with enterokinase; also called R3/I5 chimera; I5/R3
What is called Kd is a measure of binding affinity in units of concentration. Take B5: the IC50 with human GPCR135 [13] is 0.68 nM; with human LGR7 [2], 724 nM; with rat LGR7 it was more than 400 nM; with human LGR7 [16], approximately 500 nM; in the experiment with human GPCR142 [6] it was 1.4 nM; in the experiment with rat GPCR135 [17], 0.5 nM. Also, the “EC50, inhibition” value with human GPCR135 [14] was 0.45 nM; in the experiment with human GPCR142 [5], 0.91 nM. Moreover, the “EC50, ligand stimulated β-galactosidase expression” value in the experiment with human LGR7 [4] was 412 nM. Also, in the experiment with human LGR8 [15], the binding result is listed as “no binding”. The “fold selective over rat LGR7” value with rat GPCR135 [18] is 800 fold. The Kd was approximately 0.5 nM with human GPCR135 [19] and approximately 500 nM with human LGR7 [20].
Consider RAAPYGVRLCGREFIRAVIFTCGGSRW [synthetic human relaxin-3 B-chain], for which the “inhibition of forskolin-stimulated β-galactosidase activity in SK-N-MC/β-gal cells, EC50” value was 88 nM with human GPCR135 [21] and 125 nM with human GPCR142 [22].

B6: Relaxin-3/Relaxin-1 (R3/R1) chimeric polypeptide (ligand, human)
chain 1: RAAPYGVRLCGREFIRAVIFTCGGSRW
chain 2: RPYVALFEKCCLIGCTKRSLAKYC
modifications: disulfide (positions not given here)
notes: domain: A-chain; Two chains joined by disulfide bonds; Made in COS-7 cells with furin, FLAG tag removed with enterokinase
As for B6, the half-maximal inhibitory concentration (IC50) with human GPCR135 [13] was 2.9 nM; with human LGR7 [2] it was 5.1 nM; in the experiment with human GPCR142 [6], 2.6 nM; with human LGR8 [8], more than 1000 nM. In addition, the “EC50, ligand stimulated β-galactosidase expression” value in the experiment with human LGR8 [3] is more than 1000 nM; with human LGR7 [4], 4.5 nM. Further, the “EC50, inhibition” value with human GPCR135 [14] stood at 1.8 nM.

B7: Relaxin-3/INSL6 (R3/I6) chimeric polypeptide (ligand, human)
chain 1: RAAPYGVRLCGREFIRAVIFTCGGSRW
chain 2: GYSEKCCLTGCTKEELSIAC
modifications: disulfide (positions not given here)
notes: as for B2
In the case of B7, the IC50 came to 9.5 nM in the experiment with human GPCR135 [13], 12.9 nM with human LGR7 [2], 11.3 nM with human GPCR142 [6] and 15 nM in the experiment with human LGR7 [23]. Also, the “EC50, inhibition” value with human GPCR135 [14] was 8.4 nM; with human GPCR142 [5], 11.2 nM. For the same molecule, in the experiment with human LGR7 [4], the “EC50, ligand stimulated β-galactosidase expression” value worked out at 13.7 nM. Moreover, in the experiment with human LGR8 [15], the binding result was “no binding”.
